Patent US20170073408A1 (Amgen, published 2017)
Numbering of substitutions follows the chain as printed. Each block holds one binder with its values, some of them ahead of it.

Experiments:
[1] = molecular target: T1, recombinant human activin A (mature) (human, UniProt P08476 311-426); assay: cell-based or functional assay
T1 sequence: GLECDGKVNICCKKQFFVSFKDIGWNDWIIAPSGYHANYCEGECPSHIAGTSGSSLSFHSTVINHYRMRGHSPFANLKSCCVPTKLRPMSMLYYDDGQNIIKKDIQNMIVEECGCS

[2] = molecular target: T1, recombinant human activin A (mature); assay: KinExA solution equilibrium, activin A-coated beads
Protocol: Solution-based equilibrium-binding assays using KinExA™ technology (Sapidyne Instruments, Inc.) were used to determine the dissociation equilibrium (KD) of activin A binding to antibody molecules. This solution-based assay is considered to be more sensitive than the BIAcore assay in some instances. Reacti-Gel™ 6× was pre-coated with about 50 μg/ml activin A overnight, and then blocked with BSA. 30 pM and 100 pM of antibody samples were incubated with various concentrations (0.5 pM to 5 nM) of activin A in sample buffer at room temperature for 8 hours before being run through the activin A-coated beads. The amount of the bead-bound antibody was quantified by fluorescent (Cy5) labeled goat anti-human-Fc antibody at 1 mg/ml in superblock. The binding signal was proportional to the concentration of free antibody at equilibrium with a given activin A concentration. KD was obtained from the nonlinear regression of the competition curves using a dual-curve one-site homogeneous binding model provided in the KinEx ATM software (Sapidyne Instruments, Inc.). […] A2 and A3 bound to activin A at ˜15 pM and ˜8 pM, respectively.

BMP4 = molecular target: T2, BMP4 (UniProt P12644 293-408); assay: BIAcore, antibody pre-incubated with ligand, ActRIIB/Fc on chip
T2 construct: Bought
T2 sequence (looked up): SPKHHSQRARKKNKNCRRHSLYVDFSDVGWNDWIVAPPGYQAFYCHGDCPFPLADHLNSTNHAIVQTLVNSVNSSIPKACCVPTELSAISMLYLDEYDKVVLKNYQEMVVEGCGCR
Protocol: (§1) These assays were performed using BlAcore® technology, to determine the selectivity of binding of antibodies A1, A2 and A3 to various activins and other TGF-β family members, including activin A, activin B, activin AB, inhibin A, GDF-8, GDF-11, TGF-β-1, TGF-β-3, and BMP4 (all from R & D Systems). […] Because BlAcore assays detect changes in the refractive index, the difference between the response detected with injection over the immobilized receptor surfaces compared with the response detected with injection over the control surface in the absence of any antibody represents the actual binding of the various ligands to the receptor. With pre-incubation of antibodies and activin and TGF-β molecules, a change (increase or decrease) in binding response indicates antibody binding to the TGFβ family of molecules. The antibodies all bound to activin A but not to activin B, GDF-8, GDF-11, TGF-β-1, TGF-β-3, and BMP4, thus indicating specificity for activin A.

GDF-8 = molecular target: T3, GDF-8 (UniProt O14793 267-375); assay: as above
T3 construct: Bought
T3 sequence (looked up): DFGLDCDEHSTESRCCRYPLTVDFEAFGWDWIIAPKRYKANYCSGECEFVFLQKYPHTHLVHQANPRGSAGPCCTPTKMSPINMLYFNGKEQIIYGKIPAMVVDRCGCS
Protocol: as §1

GDF-11 = molecular target: T4, GDF-11 (UniProt O95390 299-407); assay: as above
T4 construct: Bought
T4 sequence (looked up): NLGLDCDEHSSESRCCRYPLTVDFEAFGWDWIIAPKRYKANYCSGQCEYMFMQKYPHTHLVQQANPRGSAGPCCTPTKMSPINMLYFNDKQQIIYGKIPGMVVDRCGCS
Protocol: as §1

TGF-β-1 = molecular target: T5, TGF-β-1 (UniProt P01137 279-390); assay: as above
T5 construct: Bought
T5 sequence (P01137 279-390 limits assumed): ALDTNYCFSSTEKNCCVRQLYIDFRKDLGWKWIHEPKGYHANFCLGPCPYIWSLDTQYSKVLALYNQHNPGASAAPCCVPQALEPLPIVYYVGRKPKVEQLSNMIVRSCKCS
Protocol: as §1

TGF-β-3 = molecular target: T6, TGF-β-3 (UniProt P10600 301-412); assay: as above
T6 construct: Bought
T6 sequence (looked up): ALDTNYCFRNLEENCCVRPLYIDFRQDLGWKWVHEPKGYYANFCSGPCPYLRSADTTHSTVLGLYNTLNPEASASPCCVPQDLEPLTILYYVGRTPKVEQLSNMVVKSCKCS
Protocol: as §1

activin B = molecular target: T7, activin B (UniProt P09529 293-407); assay: affinity analysis of Example 15 (antibody immobilized on a surface)
T7 construct: Bought (R & D Systems)
T7 sequence (looked up): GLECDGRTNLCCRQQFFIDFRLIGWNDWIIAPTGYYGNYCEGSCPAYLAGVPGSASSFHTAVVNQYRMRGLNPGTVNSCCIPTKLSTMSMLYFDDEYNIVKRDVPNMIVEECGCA

[3] = molecular target: T1, recombinant human activin A (mature); assay: affinity analysis of Example 15 (method of the KD not given)
[4] = molecular target: T1, recombinant human activin A (mature); assay: BIAcore blocking assay, 1 nM activin A; competitor rhActivin RIB/Fc chimera on chip
Protocol: (§2) Blocking assays were conducted on immobilized recombinant human activin RIB-Fc chimera surfaces, recombinant human activin RIIB-Fc chimera surfaces, and recombinant human RIIA-Fc chimera recombinant surfaces, as described in Example 5. Monoclonal antibodies A1, A2, AKA1, and AKA2 on each chimera surface were incubated with 1 nM activin A, and the relative binding response (%) was measured.

[5] = molecular target: T1, recombinant human activin A (mature); assay: Biacore: 1 nM Activin A + sample over rhActivin RIIB/Fc Chimera surface; rising ('carry on') curve
Protocol: as §2

A/B13-39 = molecular target: T8, A/B13-39; assay: Biacore blocking: 100 nM antibody + diluted conditioned medium (CM) of the ligand over ActRIB-Fc surface
T8 construct: also called Activin A 13/39 B
T8 activin A/B chimeric subunit: T1 sequence with K13R, K14Q, V18I, S19D, K21R, D22L, S33T, H36Y, A37G

[6] = molecular target: T1, recombinant human activin A (mature); assay: Biacore blocking: 1 nM Activin A + antibody over rhActRIB-Fc chimera surface. No unit in the drawn table; M by Table 7, which prints this value rounded as 0.18 nM
A/B82-107 = molecular target: T9, A/B82-107; assay: Biacore blocking: 100 nM antibody + diluted conditioned medium (CM) of the ligand over ActRIB-Fc surface
T9 activin A/B chimeric subunit: T1 sequence with V82I, R87S, P88T, Y94F, G97E, Q98Y, I101V, K103R, I105V, Q106P

[7] = molecular target: T1, recombinant human activin A (mature); assay: Biacore premix competition: 2 nM rhActivinA + 20 nM antibody over immobilized AKA1

Cell IC50 (nM); luciferase activity of C2C12/pMARE reporter cells, activin A fixed at 4 nM [1]: < 3 nM | Kd [2]: ~0.015 nM | binding result (BMP4): no binding | binding result (GDF-8): no binding | binding result (GDF-11): no binding | binding result (TGF-β-1): no binding | binding result (TGF-β-3): no binding | binding result (activin B): no binding | Kd [3]: ~0.025 nM | EC50 [4]: 0.18 nM | EC50 (read off the curve) [5]: ~1 nM | binding result (A/B13-39): binds | EC50 [6]: 0.177 nM
B1: anti-activin A monoclonal antibody A2 (antibody, human IgG2, kappa, V domains shown)
VH: QVQLVESGGGVVQPGRSLRLSCAASGFTFSSYGMHWVRQAPGKGLEWVAVIWYDGSNKYHADSVKGRFTISRDNSKNTLYLQVNSLRAEDTAVYYCVRSRNWNYDNYYYGLDVWGQGTTVTVSS
VL: DIQMTQSPSSLSASVGDRVTITCRASQGIRNNLGWYQQKPGKAPKRLIYAASSLQSGVPSRFSGSGSGTEFTLTISSLQPEDFTTYYCLQHNSYPWTFGQGTKVEIKR
notes: Fully human antibody from XenoMouse hybridoma; also called L2H2

Cell IC50 (nM); luciferase activity of C2C12/pMARE reporter cells, activin A fixed at 4 nM [1]: < 3 nM | Kd [2]: ~0.008 nM | binding result (BMP4): no binding | binding result (GDF-8): no binding | binding result (GDF-11): no binding | binding result (TGF-β-1): no binding | binding result (TGF-β-3): no binding | binding result (activin B): no binding | Kd [3]: ~0.011 nM | binding result (A/B13-39): binds | binding result (A/B82-107): no binding (tested: 100 nM)
B2: anti-activin A monoclonal antibody A3 (antibody, human IgG2, kappa, V domains shown)
VH: EVQLVESGGGLVQPGGSLRLSCAASGFTFSSYWMSWVRQAPGKGLECVANIKQDGSEEYYVDSVKGRFTISRDNAKNSLYLQMNSLRAEDTAVYYCARGSSSWYYYNYGMDVWGQGTTVTVSS
VL: B1 VL with N32D, T84A, L89R, H91Q, S93T, W96L, Q100G
notes: Fully human antibody from XenoMouse hybridoma; also called L3H3

binding result (A/B13-39): binds | binding result (A/B82-107): no binding (tested: 100 nM)
B3: A9 (antibody, V domains shown)
VH: B1 VH
VL: DIQMTQSPSSLSASVGDRVTITCRASQGIRNNLGWYQQKPGKAPKRLIYAASSLQSGVPSRFSGSGSGTEFTLTISSLQPEDFTTYYCLQHNSYPWTFGQGTKVEIK
notes: also called antibody A9; L9H9

binding result [7]: binds | binding result (A/B13-39): binds | binding result (A/B82-107): binds
B4: A8 (antibody, V domains shown)
VH: QVQLQESGPGLVKPSETLSLTCTVSGGSINSFYWSWIRQPPGKGLEWIGYIYYSGSTNYNPSLKRRVTISVDTSKTQFSLKLSSVTAADTAVYYCARDSIAAPFDYWGQGTLVTVSS
VL: DIVMTQSPDSLAVSLGERATITCKSSQSILYSSNNKKYLVWYQQKPGQPPKLIIYWTSMRESGVPDRFSGSGSGTDFTLTISSLQAEDVAVYYCQQYYSTPWTFGQGTKVEIK
notes: also called antibody A8; L8H8

binding result [7]: binds | binding result (A/B13-39): binds | binding result (A/B82-107): binds
B5: A5 (antibody, V domains shown)
VH: B4 VH with R65S
VL: B4 VL with S82N
notes: also called antibody A5; L5H5

binding result [7]: binds | binding result (A/B13-39): binds | binding result (A/B82-107): binds
B6: A13 (antibody, V domains shown)
VH: QVQLVQSGAEVKKPGASVKVSCKASGYTFTSYGISWVRQAPGQGLERMGWISAYNGNTNYAQKFQGRVTMTTDTSTTTAYMELRSLRSDDTAVYYCARDQDYYDSSGWGHWGQGTLVTVSS
VL: SYELTQPPSVSVSPGQTASITCSGDKLGDKYVCWYQQKPGQSPELVIYLDNKRPSGIPERFSGSNSGNTATLTISGTQAMDEADYYCQAWDSSTVFGGGTKLTVL
notes: also called antibody A13; L13H13

binding result [7]: binds | binding result (A/B13-39): no binding (tested: 100 nM) | binding result (A/B82-107): binds
B7: A14 (antibody, V domains shown)
VH: B6 VH with A24T, R47W, A53P, T74K, T77S, G109D, H110P
VL: B6 VL with V32A, C33F, E44V, I47F, L49H, N51T, Y86H
notes: also called antibody A14; L14H14

binding result [7]: binds | binding result (A/B13-39): binds | binding result (A/B82-107): binds
B8: A6 (antibody, V domains shown)
VH: QVQLQQWGAGLLKPSETLSLTCAVYGGSFSAYYWSWIRQPPGKGLEWIGEINHSGGTNYNPSLKSRVTISVDTSKNQFSLKLSSVTAADTAVYYCARVQWLELAYFDYWGQGTLVTVSS
VL: DIQMTQSPSSLSASVGDRVTITCRASQSISNYLNWYQQRPGKAPKLLIYATSSLQSGVPSRFSGSGSGTDFTLTISSLQPEDFVSYYCQQSYSISPTFGGGTKVENK
notes: also called antibody A6; L6H6

binding result [7]: binds | binding result (A/B13-39): binds | binding result (A/B82-107): no binding (tested: 100 nM)
B9: A7 (antibody, V domains shown)
VH: QVQLVDSGGGVVQPGRSLRLSCAASGFTFISYGMHWVRQAPGKGLEWVAVIWYDGSTEYYADSVKGRFTISRDNSKNTLYLQMNSLRAEDTAVYYCARERQWLYHYGMDVWGQGTTVTVSS
VL: B3 VL with S26G, N32D, G34V, T84A, S93T, W96F, Q100P, E105D
notes: also called antibody A7; L7H7
